Consider 7 molecules from US20240067729A1 (PALLEON PHARMACEUTICALS, published 2024).

Some results are limits rather than exact numbers.

Assay [1] deals with T1, human PD-L1 expressed on cells (HCC827, NCI-H292, CHO-PD-L1, engineered CHO-K1) (human, UniProt Q9NZQ7 19-290).
T1 construct: whole, on cells; Endogenous on the human lung lines HCC827 and NCI-H292; transfected on CHO cells; also called PD-L1 on HCC827; PD-L1 on NCI-H292
As to the kind of experiment: flow cytometry on NCI-H292 cells, apparent Kd. As to the method: (§1) FIG. 14 is a graph showing binding of chimeric PD-L1 antibodies to HCC827 (FIG. 14A) and NCI-H292 (FIG. 14B) lung epithelial cell lines. Binding was measured using a FACS analysis with a […] secondary antibody. MFI=mean fluorescence intensity.
(§2) Purified chimeric antibodies were evaluated for their ability to bind PD-L1 expressed on two human cancer cell lines. HCC827 and NCI-292 cells were incubated with titrated antibodies for 30 min at 4° C. Cells were washed and incubated with AF647-labeled goat anti-human IgG(H+L) for 30 min at 4° C. Cells were washed, fixed and analyzed on FACSCelesta.
(Flow cytometry measures light scatter and fluorescence of single cells or particles in a stream.)

The target in assay [2] is T1, human PD-L1 expressed on cells (HCC827, …). The assay is described as follows: flow cytometry MFI, CHO-PD-L1 cells (10 nM) against parental CHO cells (100 nM). Here is the method:
CHO cells were incubated with 100 nM antibodies and CHO-PD-L1 cells (from Bioassay) with 10 nM antibodies for 30 min at 4° C. Cells were washed and incubated with goat anti-human IgG(H+L) for 30 in at 4° C. The washed cells were fixed and run on FACSCelesta.

Assay [3] deals with T2, cynomolgus PD-L1, his tagged (cPD-L1-his) (cynomolgus (Macaca fascicularis), UniProt G7PSE7 19-238).
T2 construct: also called cyPD-L1-His; Cyno PD-L1
The assay is described as follows: BLI (ForteBio Octet), IgG on AHC sensor, cPD-L1-his analyte, 1:1 fit. As to the method: (§3) Characterization of chimeric anti-PD-L1 antibodies. ForteBio octet binding of purified chimeric antibodies and recombinant hPD-L1-his and cPD-L1-his was measured. Chimeric human antibodies were captured on AHC (Anti-human IgG-Capture) Biosensor, hPD-L1-his or cPD-L1-his analytes were titrated from 100 nM in a 2× series dilution. The buffer reference was subtracted from the signal and aligned to the baseline. KD, Kon and Koff values were generated using 1:1 fitting model as described above.
(In general: Biolayer interferometry detects binding as a change in optical thickness at a sensor tip.)

Assay [4] addresses T3, human PD-L1 Fc fusion (hPD-L1-Fc) (human, UniProt Q9NZQ7 19-238, limits assumed).
T3 construct: not shown: Fc part
The assay is described as follows: blocking ELISA: antibody titrated + biotin-hPD-1-Fc on coated hPD-L1-Fc. The source says:
(§4) The plate was developed with TMB and Stop buffer, the absorbance at 450 nm was read using SpectraMax plate reader. The A450 absorbance was normalized to the control that without antibody for the percentage values. The curve and IC₅₀ were generated using GraphPad Prism software.
Protein A purified chimeric antibodies were examined by size exclusion chromatography and quantified with a UV-Vis spectrophotometer (NanoDrop; mAU=milli absorbance units).
A general note: ELISA stands for enzyme-linked immunosorbent assay.

Assay [5] has as its target T4, human PD-L1, his tagged (hPD-L1-his) (human, UniProt Q9NZQ7 19-238, limits assumed).
T4 construct: also called huPD-L1-His; recombinant human PD-L1; not shown: his tag
As to the kind of experiment: BLI (ForteBio Octet), IgG on AHC sensor, hPD-L1-his analyte, 1:1 fit. As to the method: as §3

Assay [6] deals with T1, human PD-L1 expressed on cells (HCC827, …). The assay is described as follows: flow cytometry on HCC827 cells, apparent Kd. As to the method: as §1, §2
For assay [7] the target is unchanged. The assay is described as follows: cell-based or functional assay.
Assay [8] deals with T3, human PD-L1 Fc fusion (hPD-L1-Fc). The assay is described as follows: blocking ELISA: antibody titrated + biotin-hPD-1-Fc 1 ug/mL on coated hPD-L1-Fc.
From the text: as §4

For assay [9], the target named is T2, cynomolgus PD-L1, his tagged …. As to the kind of experiment: ELISA on cynomolgus PD-L1.
The target is the same in assay [10]. As to the kind of experiment: BLI (ForteBio Octet), mouse IgG on AMC sensor, cPD-L1-his analyte, 1:1 fit. As to the method: (§5) Screening of purified hybridoma antibodies. ForteBio octet binding of purified antibodies to recombinant hPD-L1-his and cPD-L1-his was measured. Mouse IgGs purified from hybridoma supernatant were captured on AMC (Anti-mouse IgG-Capture) Biosensor. hPD-L1-his or cPD-L1-his analytes were titrated from 100 nM in a 2× series dilution. The signal was subtracted with buffer reference and aligned to the baseline. KD, Kon and Koff values were generated using a 1:1 fitting model. […] The X-axes represent assay time in seconds, and the Y-axes represent binding signal on the biosensor. Each line represents the real time signal of antigen association and dissociation at the given antigen concentration in the assay (e.g., the top line represents the signal of the highest antigen concentration in the assay, the second top line represents the second highest concentration in the assay). The vertical dashed line represents the time point that the assay was moved from association step to the dissociation step. All the ForteBio/Octet assays were using standard/conventional settings and the graphs provided in the figures will be understood by one of skill in the art.

Assay [11] addresses T4, human PD-L1, his tagged (hPD-L1-his). The assay is described as follows: BLI (ForteBio Octet), mouse IgG on AMC sensor, hPD-L1-his analyte, 1:1 fit. As to the method: as §5
Assay [12] shares this target. The assay is described as follows: BLI (ForteBio Octet), hPD-L1-his. As to the method: (§6) Characterization of chimeric anti-PD-L1 antibodies. ForteBio octet binding of purified chimeric antibodies and recombinant hPD-L1-his and cPD-L1-his was measured. Chimeric human antibodies were captured on AHC (Anti-human IgG-Capture) Biosensor, hPD-L1-his or cPD-L1-his analytes were titrated from 100 nM in a 2× series dilution. The buffer reference was subtracted from the signal and aligned to the baseline. KD, Kon and Koff values were generated using 1:1 fitting model as described above. […]

Assay [13] deals with T2, cynomolgus PD-L1, his tagged …. As to the kind of experiment: BLI (ForteBio Octet), cPD-L1-his. As to the method: as §6

T1 sequence (Q9NZQ7 19-290, change not shown): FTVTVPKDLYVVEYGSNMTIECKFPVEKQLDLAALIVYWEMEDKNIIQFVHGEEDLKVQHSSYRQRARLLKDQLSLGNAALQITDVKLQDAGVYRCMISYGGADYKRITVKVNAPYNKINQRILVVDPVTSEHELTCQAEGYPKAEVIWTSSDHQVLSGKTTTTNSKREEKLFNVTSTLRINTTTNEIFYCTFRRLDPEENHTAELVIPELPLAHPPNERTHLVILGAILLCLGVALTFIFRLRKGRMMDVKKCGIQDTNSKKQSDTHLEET
T2 sequence (G7PSE7 entry or part of it limits assumed, form in doubt): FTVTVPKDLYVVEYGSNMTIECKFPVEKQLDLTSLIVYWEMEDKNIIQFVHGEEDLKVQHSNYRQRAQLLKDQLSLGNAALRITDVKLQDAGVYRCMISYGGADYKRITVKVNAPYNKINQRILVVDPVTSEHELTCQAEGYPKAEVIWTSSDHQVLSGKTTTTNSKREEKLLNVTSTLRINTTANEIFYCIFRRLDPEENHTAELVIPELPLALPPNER
T4 sequence (Q9NZQ7 19-238 limits assumed): as the sequence (G7PSE7 entry or part of it limits assumed, form in doubt) above, with T33A, S34A, N62S, Q68R, R82Q, L173F, A185T, I192T, L215H counted along it
T3 sequence (Q9NZQ7 19-238 limits assumed): as the sequence (G7PSE7 entry or part of it limits assumed, form in doubt) above, with T33A, S34A, N62S, Q68R, R82Q, L173F, A185T, I192T, L215H counted along it

B1: 788-hIgG1 (chimeric PAL788) (antibody, V domains shown)
VH: QVQLQQPGAELVKPGASVKLSCKASGYTFTSNWMNWVKQRPGRGLEWIGRIHPSDSETHYHQKFKSKATLTVDKSSSTAYIQLSSLTSEDSAVYYCAHSSGDYGRDYWGQGTTLTVSS
VL: NIVLTQSPASLAVSLGQRATISCRASESVDSYGNSFMHWYQQKPGQPPKLLIYLASNLQSGVPARFSGSGSRTDFTLTIDPVEADDAATYYCQQNNEDPWTFGGGTKLEIK
As for B1, the Kd is 1.68 nM in [1], 0.867 nM in assay [3], 0.043 nM in [5] and 1.57 nM in assay [6]. Besides, the “Bind PD-L1-CHO/CHO” value in assay [2] is > 100 x. In addition, in assay [4], the concentration for half-maximal inhibition (IC50) was 2.9 nM. Also, in assay [7], the “IC50, nM (Function)” value was found to be 0.9 nM.

B2: PAL788(3E3) (hybridoma CKH-3E3) (antibody, V domains shown)
VH: QVQLQQPGAELVKPGASVKLSCKASGYTFTSNWMNWVKQRPGRGLEWIGRIHPSDSETHYHQKFKSKATLTVDKSSSTAYIQLSSLTSEDSAVYYCAHSSGDYGRDYWGQGTTLTVSS
VL: NIVLTQSPASLAVSLGQRATISCRASESVDSYGNSFMHWYQQKPGQPPKLLIYLASNLQSGVPARFSGSGSRTDFTLTIDPVEADDAATYYCQQNNEDPWTFGGGTKLEIK
notes: Mouse IgG purified from hybridoma supernatant
With B2, the IC50 in assay [8] stood at 0.89 nM. In addition, the “ELISA cyno, Fold over Bkg” value in assay [9] was 24.8 fold over background. For the same molecule, the values for the Kd in assay [10] and in [11] were 0.392 nM and 0.188 nM, respectively.

B3: 785-hIgG1 (chimeric PAL785) (antibody, V domains shown)
VH: EVQLQESGPELVKPGTSVKMSCKASGYTFTSYVMHWVKQRPGQGLEWIGYINPYNDGSKYNEKFKGKATLTSDTSSSTAYMELSSLTSEDSAVYYCAKQTLDFWGQGTSVTVST
VL: DIVLTQSPASLAVSLGQRATISCRASESVEFYGTTLMQWYQQKPGQPPKLLIYAASNVESGVPARFSGSGSGTDFSLNIHPVEEGDIGMYFCQQSRKVPYTFGGGTKLEIK
In the case of B3, the Kd in assay [1] came to 0.19 nM; in assay [3], 0.724 nM; in assay [5], 1.64 nM; in assay [6] it was 0.29 nM. The “Bind PD-L1-CHO/CHO” value in [2] is > 100 x. Moreover, the IC50 in assay [4] came to 1.9 nM. Besides, the “IC50, nM (Function)” value in assay [7] was 0.5 nM.

B4: 767-hIgG1 (chimeric PAL767) (antibody, V domains shown)
VH: EVQLQESGPSLVKPSQTLSLTCSVTGDSITSGYWNWIRKFPGNKLEYMGYISYTGSTYYNPSLKRRISITRDTSKNQYYLQLNSVTTEDTATYYCASQGGWLQAMDYWGQGTSVTVSS
VL: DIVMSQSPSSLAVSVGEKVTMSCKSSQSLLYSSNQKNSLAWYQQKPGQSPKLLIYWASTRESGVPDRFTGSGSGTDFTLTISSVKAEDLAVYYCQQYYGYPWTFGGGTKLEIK
B4: the Kd in [1] came out at 0.23 nM; in assay [3] it was 0.266 nM; in assay [5] it was 0.0522 nM; in assay [6] it was 0.26 nM. Moreover, in assay [2], the “Bind PD-L1-CHO/CHO” value was > 100 x. Further, the concentration for half-maximal inhibition (IC50) in assay [4] came out at 2 nM. Besides, in assay [7], the “IC50, nM (Function)” value was determined as 0.6 nM.

B5: 752-hIgG1 (chimeric PAL752) (antibody, V domains shown)
VH: EVQLQESGAELARPGASVKLSCKASGHAFTSDSINWVKQRIGQGLEWIGEIYPRSGNPYYNEKFKGKATLTADKSSSTAYMELRSLTSEDSAVYFCATDYYGRYFDVWGTGTTVTVSS
VL: DIQMTQSSFSFSVSLGDRVTIICKASEDIYNRLAWYQQKPGNTPRLLISGATSLETGVPSRFSGSGSGKDYTLSITSLQTEDVATYYCQQYWSTPWTFGGGTKLEIK
In the case of B5, the Kd in [1] is 4.98 nM; in assay [3], 3.18 nM; in assay [5], 1.18 nM; in [6] it was 3.63 nM. In addition, the IC50 in assay [4] stood at 4.6 nM. Also, in assay [7], the “IC50, nM (Function)” value is 1.5 nM.

B6: 769-hIgG1 (chimeric PAL769) (antibody, V domains shown)
VH: EVQLQESGAELVKPGASVTLSCTASGFNIKDTYMHWVKQRPEQGLEWIGRIDPANDNTKYDPKFQDKATITADTSSDTAYLRLSSLTSEDTAVYYCAREGYGGSYGEGYWGQGTTLTVSS
VL: SIVMTQTPKFLLVSAGDRVTITCKASQSVSNDVIWYQQKPGQSPKLLIYYASIRFTGVPDRFAGSGYGTDFTFTINTVQAEDLAVYFCQQDYNSPWTFGGGTKLEIK
Take B6: the Kd in assay [1] amounted to 0.12 nM; in [3], 0.55 nM; in assay [12], 2.59 nM; in [5] it was 0.64 nM; in assay [13], 2.92 nM; in [6], 0.17 nM. Also, the “Bind PD-L1-CHO/CHO” value in assay [2] is > 100 x. Further, the figures for the koff in assay [12] and in [13] were 0.000967 s⁻¹ and 0.000685 s⁻¹, respectively. Also, the values for the kon in assay [12] and in [13] were 373000 M⁻¹ s⁻¹ and 238000 M⁻¹ s⁻¹, respectively. The IC50 in assay [4] was determined as 1.6 nM. Moreover, in assay [7], the “IC50, nM (Function)” value was 0.5 nM.

B7: 771-hIgG1 (chimeric PAL771) (antibody, V domains shown)
VH: EVQLQESGAELVKPGASVKLSCTASGFNIKDTYMHWVKQRPEQGLEWIGRIDPANGNTKYDPKFPGKATITADTSSNTAYLQLSSLTSEDAAVYYCARPFNYRFYDVYYFDYWGQGTTLTVST
VL: QIVLTQSPAIMSASPGEKVTMTCSASSSVSYMYWYQQKPGSSPRLLIYDTSNLASGVPLRFSGSGSGTSYSLTLSRMEAEDAATYYCQQWSTYPLTFGAGTKLELK
Turning to B7, the Kd in assay [1] came to 1.17 nM; in assay [3], 1.12 nM; in [5] it was 1.43 nM; in assay [6] it was 1.02 nM. The “IC50, nM (Function)” value in [7] worked out at 1 nM.

One may read the IC50 as the concentration that inhibits the measured activity by half. A word on the koff: it is a measure of how fast the partners let go of each other. Low readings indicate slow dissociation, high ones fast dissociation. In general, kon refers to a measure of how fast the partners come together. A high value points to faster complex formation.
